± gives the uncertainty stated by the source.

B1: Zinc finger MYM-type protein 3, residues 589 to 668; numbered along this chain, Q14202 (parent)
chain: LSCHYCHSLFSGKPEVLDWQDQVFQFCCRDCCEDFKRLRGVVSQCEHCRQEKLLHEKLRFSGVEKSFCSEGCVLLYKQDF
B2: Nucleolar transcription factor 1, residues 408 to 469; numbered along this chain, P17480 (parent)
chain: KRPVSAMFIFSEEKRRQLQEERPELSESELTRLLARMWNDLSEKKKAKYKAREAALKAQSER

Variants of B1 are the subject of the first data set. Kind of data set: abundance fitness (aPCA) (normalised: wild type 0, dead -1); higher = more abundant; growth selection in yeast, the domain comes from the species named. The settings on record: Homo sapiens.
Turning to LSCHYCHSLFSGKPEVLDWQDQVFQFCCRDCCEDFKRLRGVVSQCEHCRQEKLLHEKLRFSGVELSFCSEGCVLLYKQDF [K65L], the abundance fitness was -0.441 ± 0.2.
Still for that read-out and setting: to LSCHYCHSLFSGKPEVLDWQDQVFQFCCRDCCEDFKRLRGVVSQCEHCRQEKLLIEKLRFSGVEKSFCSEGCVLLYKQDF [H55I] belongs 0.199 ± 0.35; to LSCHYCHSLFSGKPEVLDWQDQVFQFCCRDCCEDFKRLRGVVSQLEHCRQEKLLHEKLRFSGVEKSFCSEGCVLLYKQDF [C45L], -0.867 ± 0.19; to LSCHYCHSLFSGKPEVLDWQDQVFQFCCRDCCEDFKRLRGVVSQCEHCRQEKLLHEKLRFSGVEKSFCSEGCVLLYKGDF [Q78G], -0.292 ± 0.1.
On the same count and under the same terms, to LSCHYCHSLFSGKPEVLDWQDQVFQFCCRDCCEDFKRLRGVVSQCEHCRQEKLLHEKLRFSGVEKSFCSEGQVLLYKQDF [C72Q] belongs -0.317 ± 0.41.

Variants of B2 are the subject of the next data set. The data set is described as above. The settings on record: Homo sapiens.
KRPVSAMFIFSEEKPRQLQEERPELSESELTRLLARMWNDLSEKKKAKYKAREAALKAQSER [R15P]: the abundance fitness was -1.28 ± 0.15.
Turning to KRPVSAMFIFSEEKRRQLQEERPELSESELTRLLARMWNDLSEKKQAKYKAREAALKAQSER [K46Q], the abundance fitness is -0.112 ± 0.068.
Take KRPVSAMFIFSEEKRRQLQEERPELSESELTRLLARMWNDLSEKKDAKYKAREAALKAQSER [K46D]: the abundance fitness was -0.896 ± 0.11.
For the variant KRPVSAMFIFSEEKRRQLQEERPELSECELTRLLARMWNDLSEKKKAKYKAREAALKAQSER [S28C], the abundance fitness is -0.043 ± 0.082.
Consider KRPVSAMFIFSEEKRRQLQEERPELSEFELTRLLARMWNDLSEKKKAKYKAREAALKAQSER [S28F], for which the abundance fitness was -0.071 ± 0.047.
KRPVSAMFIFSEEKRRQLQEERPELSEHELTRLLARMWNDLSEKKKAKYKAREAALKAQSER [S28H]: the abundance fitness is -0.06 ± 0.046.
The same measure, in the same setting: to NRPVSAMFIFSEEKRRQLQEERPELSESELTRLLARMWNDLSEKKKAKYKAREAALKAQSER [K1N] belongs -0.191 ± 0.17.
Turning to SRPVSAMFIFSEEKRRQLQEERPELSESELTRLLARMWNDLSEKKKAKYKAREAALKAQSER [K1S], the abundance fitness was -0.276 ± 0.14.
Same read-out and setting: for KRPVSAMFIFSEEKRRQLQEERPELSESELTRLLARMWNDLSEKKKAKYKAREAALDAQSER [K57D] the value was -0.096 ± 0.058; for KRPVSAMFIFSEEKRRQLQEERPELSESELTRLLARMSNDLSEKKKAKYKAREAALKAQSER [W38S], -0.732 ± 0.054; for KRPVSAMFIFSEEKRRQLQEERPEESESELTRLLARMWNDLSEKKKAKYKAREAALKAQSER [L25E], -0.501 ± 0.076.
On the same count and under the same terms, to KRPVSAMFPFSEEKRRQLQEERPELSESELTRLLARMWNDLSEKKKAKYKAREAALKAQSER [I9P] belongs -0.365 ± 0.079; to KRPVSAMFIFSEEKRRQLQEERPELLESELTRLLARMWNDLSEKKKAKYKAREAALKAQSER [S26L], -0.231 ± 0.07; to KRPVSAMFISSEEKRRQLQEERPELSESELTRLLARMWNDLSEKKKAKYKAREAALKAQSER [F10S], -0.648 ± 0.061.
Still for that read-out and setting: for KRPVSAMFIASEEKRRQLQEERPELSESELTRLLARMWNDLSEKKKAKYKAREAALKAQSER [F10A] the value was -0.829 ± 0.067; for KRPVSAMFIFSEEKRRQLQEERPELSESELTRLLARMWNDLSEKKKAKYKAIEAALKAQSER [R52I], -0.134 ± 0.11; for KRPVSAMFIFSEEKRRQLQEERPELSESELTRLLARMWNDLSEKKKAKYKAREAFLKAQSER [A55F], 0.059 ± 0.17.
Turning to KRPVSAMFIFSEEKRRQLQEERPELSESELTRLLARMWNDLSEKKKAKYKAREAMLKAQSER [A55M], the abundance fitness was -0.047 ± 0.091.
With KRPVSAMFIFSEEKRRQLQVERPELSESELTRLLARMWNDLSEKKKAKYKAREAALKAQSER [E20V], the abundance fitness was -0.055 ± 0.043.
On the same count and under the same terms, for KRPVSAMFIFSEEKRRQLQIERPELSESELTRLLARMWNDLSEKKKAKYKAREAALKAQSER [E20I] the value was -0.114 ± 0.097; for KRPVSAMFIFSEEKRRQLQEERPELSESELTRLLARMWNDQSEKKKAKYKAREAALKAQSER [L41Q], -0.225 ± 0.07.
As for KRPVSAMFIFSEEKRRQLQEERPQLSESELTRLLARMWNDLSEKKKAKYKAREAALKAQSER [E24Q], the abundance fitness is -0.151 ± 0.1.
On the same count and under the same terms, to KRPVSAMFIFSEEKRRQLQEERPELSESELTRLLARMWNGLSEKKKAKYKAREAALKAQSER [D40G] belongs -0.094 ± 0.038; to KRPVSAMFIFSEEKRRQLQELRPELSESELTRLLARMWNDLSEKKKAKYKAREAALKAQSER [E21L], -0.097 ± 0.041; to KRPVSAMFIFSEEKRRQLQEPRPELSESELTRLLARMWNDLSEKKKAKYKAREAALKAQSER [E21P], -1.1 ± 0.15.
Regarding KRPVSAMFIFSEEKRRQLQEERPELSESELTRLLARMWNDLSELKKAKYKAREAALKAQSER [K44L], the abundance fitness is -0.108 ± 0.043.
Take KRPVSAMFIFSEEKRRQLQEERPELSESELTRLLARMWNDLSEKNKAKYKAREAALKAQSER [K45N]: the abundance fitness was -0.064 ± 0.072.
On to KRPVSAMFIFSEEKRRQLQEERPELSESELTRLLCRMWNDLSEKKKAKYKAREAALKAQSER [A35C], for which the abundance fitness was -0.194 ± 0.13.
Take KFPVSAMFIFSEEKRRQLQEERPELSESELTRLLARMWNDLSEKKKAKYKAREAALKAQSER [R2F]: the abundance fitness was -0.043 ± 0.069.
KRPVSAMFIFSEEKRRQLQEERPELSESELTHLLARMWNDLSEKKKAKYKAREAALKAQSER [R32H]: the abundance fitness amounted to 0.023 ± 0.083.
With KRPVGAMFIFSEEKRRQLQEERPELSESELTRLLARMWNDLSEKKKAKYKAREAALKAQSER [S5G], the abundance fitness was -0.031 ± 0.051.
Take KRPVSAMFIFSEEKRRQLQEERPELSESELTRLLARTWNDLSEKKKAKYKAREAALKAQSER [M37T]: the abundance fitness is -0.212 ± 0.07.
For the variant KRPVSAMFIFSEEKRRQLQEERPELSESELTRLLARIWNDLSEKKKAKYKAREAALKAQSER [M37I], the abundance fitness was -0.235 ± 0.14.

(Values after the Human Domainome abundance scans (Beltran et al. 2025).)
